Reference: patent US11965039B2, “Compstatin analogues and their medical uses” (priority 2018, dated 2024)
Positions of bridges follow the written chain, without caps; N, C: chain ends. Non-standard residues stand in square brackets, D forms with d. Sar = CNCC(=O)O

B1: Compound 37 (peptide)
peptide: Ac-KEKICIWQDWGEHRCTEKE-NH2
modifications: disulfide 5-15
SMILES: CC[C@H](C)[C@@H]1NC(=O)[C@@H](NC(=O)[C@@H](NC(=O)[C@H](CCCCN)NC(=O)[C@H](CCC(=O)O)NC(=O)[C@H](CCCCN)NC(C)=O)[C@@H](C)CC)CSSC[C@@H](C(=O)N[C@H](C(=O)N[C@@H](CCC(=O)O)C(=O)N[C@@H](CCCCN)C(=O)N[C@@H](CCC(=O)O)C(N)=O)[C@@H](C)O)NC(=O)[C@H](CCCNC(=N)N)NC(=O)[C@H](Cc2c[nH]cn2)NC(=O)[C@H](CCC(=O)O)NC(=O)CNC(=O)[C@H](Cc2c[nH]c3ccccc23)NC(=O)[C@H](CC(=O)O)NC(=O)[C@H](CCC(N)=O)NC(=O)[C@H](Cc2c[nH]c3ccccc23)NC1=O
B2: Compound 36 (peptide)
peptide: Ac-ESEICIWQDWGEHRCEGE-NH2
modifications: disulfide 5-15
SMILES: CC[C@H](C)[C@@H]1NC(=O)[C@@H](NC(=O)[C@@H](NC(=O)[C@H](CCC(=O)O)NC(=O)[C@H](CO)NC(=O)[C@H](CCC(=O)O)NC(C)=O)[C@@H](C)CC)CSSC[C@@H](C(=O)N[C@@H](CCC(=O)O)C(=O)NCC(=O)N[C@@H](CCC(=O)O)C(N)=O)NC(=O)[C@H](CCCNC(=N)N)NC(=O)[C@H](Cc2c[nH]cn2)NC(=O)[C@H](CCC(=O)O)NC(=O)CNC(=O)[C@H](Cc2c[nH]c3ccccc23)NC(=O)[C@H](CC(=O)O)NC(=O)[C@H](CCC(N)=O)NC(=O)[C@H](Cc2c[nH]c3ccccc23)NC1=O
B3: Compound 41 (peptide)
peptide: Ac-SAICIWQDWGEHRC[Sar]E-NH2
modifications: disulfide 4-14
SMILES: CC[C@H](C)[C@H](NC(=O)[C@H](C)NC(=O)[C@H](CO)NC(C)=O)C(=O)N[C@H]1CSSC[C@@H](C(=O)N(C)CC(=O)N[C@@H](CCC(=O)O)C(N)=O)NC(=O)[C@H](CCCNC(=N)N)NC(=O)[C@H](Cc2c[nH]cn2)NC(=O)[C@H](CCC(=O)O)NC(=O)CNC(=O)[C@H](Cc2c[nH]c3ccccc23)NC(=O)[C@H](CC(=O)O)NC(=O)[C@H](CCC(N)=O)NC(=O)[C@H](Cc2c[nH]c3ccccc23)NC(=O)[C@H]([C@@H](C)CC)NC1=O
B4: Compound 27 (peptide)
peptide: Ac-ICIWQDWGEHRCEGE-NH2
modifications: disulfide 2-12
SMILES: CC[C@H](C)[C@H](NC(C)=O)C(=O)N[C@H]1CSSC[C@@H](C(=O)N[C@@H](CCC(=O)O)C(=O)NCC(=O)N[C@@H](CCC(=O)O)C(N)=O)NC(=O)[C@H](CCCNC(=N)N)NC(=O)[C@H](Cc2c[nH]cn2)NC(=O)[C@H](CCC(=O)O)NC(=O)CNC(=O)[C@H](Cc2c[nH]c3ccccc23)NC(=O)[C@H](CC(=O)O)NC(=O)[C@H](CCC(N)=O)NC(=O)[C@H](Cc2c[nH]c3ccccc23)NC(=O)[C@H]([C@@H](C)CC)NC1=O
B5: Compound 33 (peptide)
peptide: Ac-EICIWQDWGEHRCTE-NH2
modifications: disulfide 3-13
SMILES: CC[C@H](C)[C@@H]1NC(=O)[C@@H](NC(=O)[C@@H](NC(=O)[C@H](CCC(=O)O)NC(C)=O)[C@@H](C)CC)CSSC[C@@H](C(=O)N[C@H](C(=O)N[C@@H](CCC(=O)O)C(N)=O)[C@@H](C)O)NC(=O)[C@H](CCCNC(=N)N)NC(=O)[C@H](Cc2c[nH]cn2)NC(=O)[C@H](CCC(=O)O)NC(=O)CNC(=O)[C@H](Cc2c[nH]c3ccccc23)NC(=O)[C@H](CC(=O)O)NC(=O)[C@H](CCC(N)=O)NC(=O)[C@H](Cc2c[nH]c3ccccc23)NC1=O
B6: Compound 34 (peptide)
peptide: Ac-EICIWQDWGEHRCTEGE-NH2
modifications: disulfide 3-13
SMILES: CC[C@H](C)[C@@H]1NC(=O)[C@@H](NC(=O)[C@@H](NC(=O)[C@H](CCC(=O)O)NC(C)=O)[C@@H](C)CC)CSSC[C@@H](C(=O)N[C@H](C(=O)N[C@@H](CCC(=O)O)C(=O)NCC(=O)N[C@@H](CCC(=O)O)C(N)=O)[C@@H](C)O)NC(=O)[C@H](CCCNC(=N)N)NC(=O)[C@H](Cc2c[nH]cn2)NC(=O)[C@H](CCC(=O)O)NC(=O)CNC(=O)[C@H](Cc2c[nH]c3ccccc23)NC(=O)[C@H](CC(=O)O)NC(=O)[C@H](CCC(N)=O)NC(=O)[C@H](Cc2c[nH]c3ccccc23)NC1=O
B7: Compound 30 (peptide)
peptide: Ac-EGEICIWQDWGEHRCT-NH2
modifications: disulfide 5-15
SMILES: CC[C@H](C)[C@@H]1NC(=O)[C@@H](NC(=O)[C@@H](NC(=O)[C@H](CCC(=O)O)NC(=O)CNC(=O)[C@H](CCC(=O)O)NC(C)=O)[C@@H](C)CC)CSSC[C@@H](C(=O)N[C@H](C(N)=O)[C@@H](C)O)NC(=O)[C@H](CCCNC(=N)N)NC(=O)[C@H](Cc2c[nH]cn2)NC(=O)[C@H](CCC(=O)O)NC(=O)CNC(=O)[C@H](Cc2c[nH]c3ccccc23)NC(=O)[C@H](CC(=O)O)NC(=O)[C@H](CCC(N)=O)NC(=O)[C@H](Cc2c[nH]c3ccccc23)NC1=O
B8: Compound 40 (peptide)
peptide: Ac-GSAICIWQDWGEHRC[Sar]E-NH2
modifications: disulfide 5-15
SMILES: CC[C@H](C)[C@H](NC(=O)[C@H](C)NC(=O)[C@H](CO)NC(=O)CNC(C)=O)C(=O)N[C@H]1CSSC[C@@H](C(=O)N(C)CC(=O)N[C@@H](CCC(=O)O)C(N)=O)NC(=O)[C@H](CCCNC(=N)N)NC(=O)[C@H](Cc2c[nH]cn2)NC(=O)[C@H](CCC(=O)O)NC(=O)CNC(=O)[C@H](Cc2c[nH]c3ccccc23)NC(=O)[C@H](CC(=O)O)NC(=O)[C@H](CCC(N)=O)NC(=O)[C@H](Cc2c[nH]c3ccccc23)NC(=O)[C@H]([C@@H](C)CC)NC1=O
B9: Compound 32 (peptide)
peptide: Ac-SEICIWQDWGEHRCTEA-NH2
modifications: disulfide 4-14
SMILES: CC[C@H](C)[C@@H]1NC(=O)[C@@H](NC(=O)[C@@H](NC(=O)[C@H](CCC(=O)O)NC(=O)[C@H](CO)NC(C)=O)[C@@H](C)CC)CSSC[C@@H](C(=O)N[C@H](C(=O)N[C@@H](CCC(=O)O)C(=O)N[C@@H](C)C(N)=O)[C@@H](C)O)NC(=O)[C@H](CCCNC(=N)N)NC(=O)[C@H](Cc2c[nH]cn2)NC(=O)[C@H](CCC(=O)O)NC(=O)CNC(=O)[C@H](Cc2c[nH]c3ccccc23)NC(=O)[C@H](CC(=O)O)NC(=O)[C@H](CCC(N)=O)NC(=O)[C@H](Cc2c[nH]c3ccccc23)NC1=O
B10: Compound 38 (peptide)
peptide: Ac-EKGICIWQDWGEHRCTEKP-NH2
modifications: disulfide 5-15
SMILES: CC[C@H](C)[C@H](NC(=O)CNC(=O)[C@H](CCCCN)NC(=O)[C@H](CCC(=O)O)NC(C)=O)C(=O)N[C@H]1CSSC[C@@H](C(=O)N[C@H](C(=O)N[C@@H](CCC(=O)O)C(=O)N[C@@H](CCCCN)C(=O)N2CCC[C@H]2C(N)=O)[C@@H](C)O)NC(=O)[C@H](CCCNC(=N)N)NC(=O)[C@H](Cc2c[nH]cn2)NC(=O)[C@H](CCC(=O)O)NC(=O)CNC(=O)[C@H](Cc2c[nH]c3ccccc23)NC(=O)[C@H](CC(=O)O)NC(=O)[C@H](CCC(N)=O)NC(=O)[C@H](Cc2c[nH]c3ccccc23)NC(=O)[C@H]([C@@H](C)CC)NC1=O
B11: Compound 39 (peptide)
peptide: Ac-ICIWQDWGEHRCTEGK-NH2
modifications: disulfide 2-12
SMILES: CC[C@H](C)[C@H](NC(C)=O)C(=O)N[C@H]1CSSC[C@@H](C(=O)N[C@H](C(=O)N[C@@H](CCC(=O)O)C(=O)NCC(=O)N[C@@H](CCCCN)C(N)=O)[C@@H](C)O)NC(=O)[C@H](CCCNC(=N)N)NC(=O)[C@H](Cc2c[nH]cn2)NC(=O)[C@H](CCC(=O)O)NC(=O)CNC(=O)[C@H](Cc2c[nH]c3ccccc23)NC(=O)[C@H](CC(=O)O)NC(=O)[C@H](CCC(N)=O)NC(=O)[C@H](Cc2c[nH]c3ccccc23)NC(=O)[C@H]([C@@H](C)CC)NC1=O
B12: Compound 26 (peptide)
peptide: Ac-ICIWQDWGEHRCTE-NH2
modifications: disulfide 2-12
SMILES: CC[C@H](C)[C@H](NC(C)=O)C(=O)N[C@H]1CSSC[C@@H](C(=O)N[C@H](C(=O)N[C@@H](CCC(=O)O)C(N)=O)[C@@H](C)O)NC(=O)[C@H](CCCNC(=N)N)NC(=O)[C@H](Cc2c[nH]cn2)NC(=O)[C@H](CCC(=O)O)NC(=O)CNC(=O)[C@H](Cc2c[nH]c3ccccc23)NC(=O)[C@H](CC(=O)O)NC(=O)[C@H](CCC(N)=O)NC(=O)[C@H](Cc2c[nH]c3ccccc23)NC(=O)[C@H]([C@@H](C)CC)NC1=O
B13: Compound 35 (peptide)
peptide: Ac-EGEICIWQDWGEHRCEGE-NH2
modifications: disulfide 5-15
SMILES: CC[C@H](C)[C@@H]1NC(=O)[C@@H](NC(=O)[C@@H](NC(=O)[C@H](CCC(=O)O)NC(=O)CNC(=O)[C@H](CCC(=O)O)NC(C)=O)[C@@H](C)CC)CSSC[C@@H](C(=O)N[C@@H](CCC(=O)O)C(=O)NCC(=O)N[C@@H](CCC(=O)O)C(N)=O)NC(=O)[C@H](CCCNC(=N)N)NC(=O)[C@H](Cc2c[nH]cn2)NC(=O)[C@H](CCC(=O)O)NC(=O)CNC(=O)[C@H](Cc2c[nH]c3ccccc23)NC(=O)[C@H](CC(=O)O)NC(=O)[C@H](CCC(N)=O)NC(=O)[C@H](Cc2c[nH]c3ccccc23)NC1=O
B14: Compound 31 (peptide)
peptide: Ac-ESEICIWQDWGEHRCT-NH2
modifications: disulfide 5-15
SMILES: CC[C@H](C)[C@@H]1NC(=O)[C@@H](NC(=O)[C@@H](NC(=O)[C@H](CCC(=O)O)NC(=O)[C@H](CO)NC(=O)[C@H](CCC(=O)O)NC(C)=O)[C@@H](C)CC)CSSC[C@@H](C(=O)N[C@H](C(N)=O)[C@@H](C)O)NC(=O)[C@H](CCCNC(=N)N)NC(=O)[C@H](Cc2c[nH]cn2)NC(=O)[C@H](CCC(=O)O)NC(=O)CNC(=O)[C@H](Cc2c[nH]c3ccccc23)NC(=O)[C@H](CC(=O)O)NC(=O)[C@H](CCC(N)=O)NC(=O)[C@H](Cc2c[nH]c3ccccc23)NC1=O

What follows are binders tested against Human C3 (Complement tech cat #A113c) (human, UniProt P01024 23-1663) (assay: cell-based or functional assay).
Chain of Human C3 (Complement tech cat #A113c) (P01024 23-1663 limits assumed): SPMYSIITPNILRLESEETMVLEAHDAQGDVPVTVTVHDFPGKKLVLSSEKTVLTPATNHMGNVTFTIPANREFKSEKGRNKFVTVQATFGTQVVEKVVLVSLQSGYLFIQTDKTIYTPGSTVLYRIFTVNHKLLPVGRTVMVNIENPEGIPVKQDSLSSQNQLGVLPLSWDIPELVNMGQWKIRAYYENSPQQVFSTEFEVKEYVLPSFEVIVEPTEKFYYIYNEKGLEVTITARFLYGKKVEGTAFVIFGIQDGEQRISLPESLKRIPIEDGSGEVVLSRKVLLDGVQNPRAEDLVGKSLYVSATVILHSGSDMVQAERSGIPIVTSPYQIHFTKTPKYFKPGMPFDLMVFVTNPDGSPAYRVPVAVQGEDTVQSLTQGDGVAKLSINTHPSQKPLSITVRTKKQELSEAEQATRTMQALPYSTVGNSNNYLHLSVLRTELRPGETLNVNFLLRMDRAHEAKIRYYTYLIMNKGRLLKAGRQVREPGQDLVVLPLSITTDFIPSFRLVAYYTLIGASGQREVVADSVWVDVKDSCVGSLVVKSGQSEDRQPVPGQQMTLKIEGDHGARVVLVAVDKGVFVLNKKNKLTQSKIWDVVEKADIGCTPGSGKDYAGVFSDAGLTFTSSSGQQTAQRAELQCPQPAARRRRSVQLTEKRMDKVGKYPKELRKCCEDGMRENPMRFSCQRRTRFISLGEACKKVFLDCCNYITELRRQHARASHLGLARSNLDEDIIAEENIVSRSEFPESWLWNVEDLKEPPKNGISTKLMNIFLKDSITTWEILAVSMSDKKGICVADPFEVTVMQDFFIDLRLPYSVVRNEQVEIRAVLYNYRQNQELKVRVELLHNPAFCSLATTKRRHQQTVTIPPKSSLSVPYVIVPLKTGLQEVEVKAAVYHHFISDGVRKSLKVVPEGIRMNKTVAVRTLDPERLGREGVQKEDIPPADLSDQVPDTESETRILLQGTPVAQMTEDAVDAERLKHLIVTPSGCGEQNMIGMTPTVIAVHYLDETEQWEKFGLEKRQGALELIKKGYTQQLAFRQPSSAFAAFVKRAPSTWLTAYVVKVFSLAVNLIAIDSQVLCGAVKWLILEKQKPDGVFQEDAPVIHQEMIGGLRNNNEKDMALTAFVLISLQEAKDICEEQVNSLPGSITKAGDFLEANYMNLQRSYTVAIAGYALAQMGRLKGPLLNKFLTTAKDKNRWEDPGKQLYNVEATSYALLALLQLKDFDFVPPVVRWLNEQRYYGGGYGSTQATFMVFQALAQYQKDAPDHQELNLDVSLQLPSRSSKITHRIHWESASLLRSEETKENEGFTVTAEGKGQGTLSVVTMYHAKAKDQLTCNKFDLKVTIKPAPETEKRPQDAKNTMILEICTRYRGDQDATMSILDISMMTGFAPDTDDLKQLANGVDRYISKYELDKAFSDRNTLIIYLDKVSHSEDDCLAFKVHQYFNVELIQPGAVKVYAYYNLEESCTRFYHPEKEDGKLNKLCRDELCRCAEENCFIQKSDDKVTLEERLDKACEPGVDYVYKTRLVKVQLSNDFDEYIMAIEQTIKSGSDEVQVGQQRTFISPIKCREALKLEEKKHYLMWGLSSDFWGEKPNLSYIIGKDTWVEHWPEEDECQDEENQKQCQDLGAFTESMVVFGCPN

Binder | inhibition of hemolysis IC50 [nM]
B1 | < 250
B2 | < 250
B3 | < 250
B4 | < 100
B5 | < 100
B6 | < 250
B7 | < 100
B8 | < 250
B9 | < 100
B10 | < 250
B11 | < 100
B12 | < 100
B13 | < 500
B14 | < 100
